Laboratory results as given in IntAct's records for PubMed 20543817.
One block for each substance: values may come before it.

Legend:
nlgnx_human NLGN4X [1] = target: nlgnx_human NLGN4X (UniProt Q8N0W4)
Nlgn1, Q62765-2 [2] = target: Nlgn1, Q62765-2
nlgnx_human NLGN4X [3] = target: nlgnx_human NLGN4X (UniProt Q8N0W4); remark: listed apart in the source
Nlgn1, Q62765-2 [4] = target: Nlgn1, Q62765-2; remark: listed apart in the source
Nlgn1, Q62765-2 [5] = target: Nlgn1, Q62765-2; remark: listed apart in the source
nlgnx_human NLGN4X [6] = target: nlgnx_human NLGN4X (UniProt Q8N0W4); remark: listed apart in the source
Nlgn1, Q62765-2 [7] = target: Nlgn1, Q62765-2; remark: listed apart in the source
nlgnx_human NLGN4X [8] = target: nlgnx_human NLGN4X (UniProt Q8N0W4); remark: listed apart in the source

Sequence of Nlgn1, Q62765-2 (Q62765 other isoform, or with tags, fused parts or gaps): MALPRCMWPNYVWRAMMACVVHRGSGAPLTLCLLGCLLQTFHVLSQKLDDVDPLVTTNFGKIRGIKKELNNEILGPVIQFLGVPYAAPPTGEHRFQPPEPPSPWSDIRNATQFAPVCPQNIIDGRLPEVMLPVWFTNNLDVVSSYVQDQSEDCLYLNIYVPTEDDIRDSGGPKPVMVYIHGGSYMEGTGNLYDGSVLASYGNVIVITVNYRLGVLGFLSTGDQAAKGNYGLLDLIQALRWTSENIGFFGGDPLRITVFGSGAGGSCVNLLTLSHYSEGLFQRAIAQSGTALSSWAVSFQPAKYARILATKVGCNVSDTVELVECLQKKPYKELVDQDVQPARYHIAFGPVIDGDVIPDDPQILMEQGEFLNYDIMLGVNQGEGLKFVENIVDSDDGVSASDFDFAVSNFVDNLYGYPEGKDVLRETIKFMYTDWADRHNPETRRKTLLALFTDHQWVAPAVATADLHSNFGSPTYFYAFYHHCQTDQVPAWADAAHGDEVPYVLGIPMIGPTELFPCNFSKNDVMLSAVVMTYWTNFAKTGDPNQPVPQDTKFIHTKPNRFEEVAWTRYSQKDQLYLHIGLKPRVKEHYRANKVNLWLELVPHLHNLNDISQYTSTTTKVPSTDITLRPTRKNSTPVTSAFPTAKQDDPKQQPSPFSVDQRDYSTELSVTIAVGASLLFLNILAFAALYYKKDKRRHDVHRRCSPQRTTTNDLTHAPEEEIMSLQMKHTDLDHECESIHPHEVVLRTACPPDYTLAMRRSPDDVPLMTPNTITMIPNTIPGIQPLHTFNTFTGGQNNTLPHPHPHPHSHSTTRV
Sequence of Neurexin-1-beta (Rattus norvegicus (Rat)), Q63373-3 I206A (Q63373 other isoform, or with tags, fused parts or gaps I206A): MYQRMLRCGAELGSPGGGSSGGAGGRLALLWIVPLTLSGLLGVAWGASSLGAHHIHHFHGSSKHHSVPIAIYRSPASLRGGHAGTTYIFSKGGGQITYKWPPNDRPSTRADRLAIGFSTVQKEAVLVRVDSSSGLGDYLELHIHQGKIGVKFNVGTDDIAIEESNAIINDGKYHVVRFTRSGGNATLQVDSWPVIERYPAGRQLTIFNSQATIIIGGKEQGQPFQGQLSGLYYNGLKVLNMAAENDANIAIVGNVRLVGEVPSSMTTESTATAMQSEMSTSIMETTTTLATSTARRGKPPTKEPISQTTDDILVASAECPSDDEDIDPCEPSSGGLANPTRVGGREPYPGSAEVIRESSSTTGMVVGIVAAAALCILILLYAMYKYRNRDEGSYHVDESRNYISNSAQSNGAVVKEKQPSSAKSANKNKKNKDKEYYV
Sequence of Neurexin-1-beta (Rattus norvegicus (Rat)), Q63373-3 N103A (Q63373 other isoform, or with tags, fused parts or gaps N103A): as the sequence (Q63373 other isoform, or with tags, fused parts or gaps I206A) above
Sequence of Neurexin-1-beta (Rattus norvegicus (Rat)), Q63373-3 R109A (Q63373 other isoform, or with tags, fused parts or gaps R109A): as the sequence (Q63373 other isoform, or with tags, fused parts or gaps I206A) above
Sequence of Neurexin-1-beta (Rattus norvegicus (Rat)), Q63373-3 R202A (Q63373 other isoform, or with tags, fused parts or gaps R202A): as the sequence (Q63373 other isoform, or with tags, fused parts or gaps I206A) above

effect of a mutation on the interaction (nlgnx_human NLGN4X [1]): disrupting interaction | effect of a mutation on the interaction (Nlgn1, Q62765-2 [2]): disrupting interaction
Substance: Neurexin-1-beta (Rattus norvegicus (Rat)), Q63373-3 I206A

effect of a mutation on the interaction (nlgnx_human NLGN4X [3]): decreasing interaction | effect of a mutation on the interaction (Nlgn1, Q62765-2 [4]): decreasing interaction
Substance: Neurexin-1-beta (Rattus norvegicus (Rat)), Q63373-3 N103A

effect of a mutation on the interaction (Nlgn1, Q62765-2 [5]): decreasing interaction | effect of a mutation on the interaction (nlgnx_human NLGN4X [6]): disrupting interaction
Substance: Neurexin-1-beta (Rattus norvegicus (Rat)), Q63373-3 R109A

effect of a mutation on the interaction (Nlgn1, Q62765-2 [7]): decreasing interaction | effect of a mutation on the interaction (nlgnx_human NLGN4X [8]): disrupting interaction
Substance: Neurexin-1-beta (Rattus norvegicus (Rat)), Q63373-3 R202A
